This is an account of results in the supplement of paper PMC10567573.

B1: TRIM43 (parent)
chain: NNSWIRKNSTMVNSEDIFLLLCLK
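Further: lentivirally expressed fusions sorted by FACS into six bins by GFP to DsRed ratio, PSI derived from sequencing read proportions per bin multiplied by bin number.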

The series covers variants of B1. Briefly: protein stability index of a GFP-peptide fusion (GPS, HEK-293T) (PSI 1-6); higher = more stable. Conditions: c terminus: a fixed tail appended.
In the case of NNSWIRKNSTMPNSEDIFLLLCLK [V12P], the protein stability index worked out at 2.79. With NNSWIRKNSTMGNSEDIFLLLCLK [V12G], the protein stability index was 2.21.

As for NNSWIRKNSTMLNSEDIFLLLCLK [V12L], the protein stability index was found to be 3.58. As for NNSWIRKNSTMNNSEDIFLLLCLK [V12N], the protein stability index came to 3.36. Take NNSWIRKNSTMKNSEDIFLLLCLK [V12K]: the protein stability index was 2.75. In the case of NNSWIRKNSTMSNSEDIFLLLCLK [V12S] it was 4.3. Next, NNSWIRKNSTMCNSEDIFLLLCLK [V12C]: 1.62. For the variant NNSWIRKNSTMWNSEDIFLLLCLK [V12W], the protein stability index was 2.41.

As for NNSWIRKNSTMDNSEDIFLLLCLK [V12D], the protein stability index came to 1.97. In the case of NNSWIRKNSTMYNSEDIFLLLCLK [V12Y] it was 3.38.

Turning to NNSWIRKNSTMENSEDIFLLLCLK [V12E], the protein stability index amounted to 2.92.

As for NNSWIRKNSTMANSEDIFLLLCLK [V12A], the protein stability index is 2.57. With NNSWIRKNSTMFNSEDIFLLLCLK [V12F], the protein stability index came out at 2.89.

In the case of NNSWIRKNSTMRNSEDIFLLLCLK [V12R], the protein stability index stood at 4.39. Take NNSWIRKNSTMINSEDIFLLLCLK [V12I]: the protein stability index is 2.53. In the case of NNSWIRKNSTMMNSEDIFLLLCLK [V12M] it was 3.38; in that of NNSWIRKNSTMHNSEDIFLLLCLK [V12H], 1.81.

NNSWIRKNSTMTNSEDIFLLLCLK [V12T]: the protein stability index came to 4.1.

Turning to NNSWIRKNSTMVNSIDIFLLLCLK [E15I], the protein stability index turned out to be 2.72. In the case of NNSWIRKNSTMVNSQDIFLLLCLK [E15Q] it was 4.22; in that of NNSWIRKNSTMVNSPDIFLLLCLK [E15P], 1.87; in that of NNSWIRKNSTMVNSYDIFLLLCLK [E15Y], 3.03.

In the case of NNSWIRKNSTMVNSWDIFLLLCLK [E15W], the protein stability index is 2.01.

Turning to NNSWIRKNSTMVNSMDIFLLLCLK [E15M], the protein stability index turned out to be 2.26. In the case of NNSWIRKNSTMVNSLDIFLLLCLK [E15L] it was 2.44; in that of NNSWIRKNSTMVNSKDIFLLLCLK [E15K], 2.89. With NNSWIRKNSTMVNSGDIFLLLCLK [E15G], the protein stability index was 2.29. Next, NNSWIRKNSTMVNSVDIFLLLCLK [E15V]: 3.11; NNSWIRKNSTMVNSCDIFLLLCLK [E15C]: 2.74.

With NNSWIRKNSTMVNSRDIFLLLCLK [E15R], the protein stability index is 1.25. As to NNSWIRKNSTMVNSSDIFLLLCLK [E15S], the protein stability index was 2.47. For NNSWIRKNSTMVNSADIFLLLCLK [E15A], the protein stability index turned out to be 3.44.

With NNSWIRKNSTMVNSFDIFLLLCLK [E15F], the protein stability index stood at 2.69. In the case of NNSWIRKNSTMVNSHDIFLLLCLK [E15H] it was 2.77; in that of NNSWIRKNSTMVNSNDIFLLLCLK [E15N], 2.88. Next, NNSWIRKNSTMVNSTDIFLLLCLK [E15T]: 1.65; NNSWIRKNSTMVNSEHIFLLLCLK [D16H]: 1.71. Turning to NNSWIRKNSTMVNSECIFLLLCLK [D16C], the protein stability index came out at 3.95.

Consider NNSWIRKNSTMVNSEFIFLLLCLK [D16F], for which the protein stability index stood at 2.37. Next, NNSWIRKNSTMVNSEGIFLLLCLK [D16G]: 2.5; NNSWIRKNSTMVNSEIIFLLLCLK [D16I]: 2.17; NNSWIRKNSTMVNSEAIFLLLCLK [D16A]: 1.59. In the case of NNSWIRKNSTMVNSEEIFLLLCLK [D16E] it was 3.13; in that of NNSWIRKNSTSVNSEDIFLLLCLK [M11S], 2.27; in that of NNSWIRKNSTRVNSEDIFLLLCLK [M11R], 2.69.

Turning to NNSWIRKNSTKVNSEDIFLLLCLK [M11K], the protein stability index was determined as 2.38. In the case of NNSWIRKNSTTVNSEDIFLLLCLK [M11T] it was 3.06; in that of NNSWIRKNSTHVNSEDIFLLLCLK [M11H], 2.44; in that of NNSWIRKNSTIVNSEDIFLLLCLK [M11I], 1.89. For the variant NNSWIRKNSTGVNSEDIFLLLCLK [M11G], the protein stability index turned out to be 3.08. Next, NNSWIRKNSTLVNSEDIFLLLCLK [M11L]: 3.95; NNSWIRKNSTVVNSEDIFLLLCLK [M11V]: 2.69.

Turning to NNSWIRKNSTFVNSEDIFLLLCLK [M11F], the protein stability index worked out at 2.54. In the case of NNSWIRKNSTWVNSEDIFLLLCLK [M11W], the protein stability index was 2.44. Turning to NNSWIRKNSTYVNSEDIFLLLCLK [M11Y], the protein stability index is 2.99. In the case of NNSWIRKNSTNVNSEDIFLLLCLK [M11N] it was 1.86; in that of NNSWIRKNSTPVNSEDIFLLLCLK [M11P], 2.15. In the case of NNSWIRKNSTQVNSEDIFLLLCLK [M11Q], the protein stability index was determined as 3.54. In the case of NNSWIRKNSTMVNKEDIFLLLCLK [S14K] it was 2.36; in that of NNSWIRKNSTMVNYEDIFLLLCLK [S14Y], 2.89.

Regarding NNSWIRKNSTMVNHEDIFLLLCLK [S14H], the protein stability index turned out to be 2.12.

NNSWIRKNSTMVNAEDIFLLLCLK [S14A]: the protein stability index was 3.2. Next, NNSWIRKNSTMVNREDIFLLLCLK [S14R]: 2.77; NNSWIRKNSTMVNQEDIFLLLCLK [S14Q]: 3.26. In the case of NNSWIRKNSTMVNEEDIFLLLCLK [S14E] it was 2.08; in that of NNSWIRKNSTMVNPEDIFLLLCLK [S14P], 2.1.

In the case of NNSWIRKNSTMVNTEDIFLLLCLK [S14T], the protein stability index came to 2.17. For the variant NNSWIRKNSTMVNVEDIFLLLCLK [S14V], the protein stability index is 3.6. NNSWIRKNSTMVNFEDIFLLLCLK [S14F]: the protein stability index was found to be 2.64. Next, NNSWIRKNSTMVNNEDIFLLLCLK [S14N]: 2.82; NNSWIRKNSTMVNLEDIFLLLCLK [S14L]: 2.31; NNSWIRKNSTMVNCEDIFLLLCLK [S14C]: 2.79. Next, NNSWIRKNSTMVNMEDIFLLLCLK [S14M]: 2.13; NNSWIRKNSTMVNIEDIFLLLCLK [S14I]: 2.62. Next, NNSWIRKNSTMVNDEDIFLLLCLK [S14D]: 2.77. Regarding NNSWIRKNSTMVESEDIFLLLCLK [N13E], the protein stability index amounted to 2.47. Next, NNSWIRKNSTMVWSEDIFLLLCLK [N13W]: 3.07.

NNSWIRKNSTMVASEDIFLLLCLK [N13A]: the protein stability index was found to be 3.6. Take NNSWIRKNSTMVRSEDIFLLLCLK [N13R]: the protein stability index is 2.39.

In the case of NNSWIRKNSTMVYSEDIFLLLCLK [N13Y], the protein stability index came out at 2.33. For the variant NNSWIRKNSTMVGSEDIFLLLCLK [N13G], the protein stability index is 3.19. Next, NNSWIRKNSTMVQSEDIFLLLCLK [N13Q]: 3.14; NNSWIRKNSTMVTSEDIFLLLCLK [N13T]: 1.95. In the case of NNSWIRKNSTMVVSEDIFLLLCLK [N13V] it was 2.72; in that of NNSWIRKNSTMVMSEDIFLLLCLK [N13M], 3.59.

Regarding NNSWIRKNSTMVKSEDIFLLLCLK [N13K], the protein stability index was found to be 3.69. For the variant NNSWIRKNSTMVLSEDIFLLLCLK [N13L], the protein stability index was 2.44. NNSWIRKNSTMVDSEDIFLLLCLK [N13D]: the protein stability index turned out to be 3.31. As for NNSWIRKNSTMVHSEDIFLLLCLK [N13H], the protein stability index amounted to 3. On to NNSWIRKNSTMVFSEDIFLLLCLK [N13F], for which the protein stability index was 2.69. In the case of NNSWIRKNSTMVSSEDIFLLLCLK [N13S] it was 2.96; in that of NNSWIRKNSTMVISEDIFLLLCLK [N13I], 2.37. Next, NNSWIRKNSTMVPSEDIFLLLCLK [N13P]: 2.87; NNSWIRKNSTMVCSEDIFLLLCLK [N13C]: 3.44.
